Patent US8987414 (AILERON THERAPEUTICS, dated 2015)
Bridge positions count the residues as written; N and C are the ends. Square brackets hold non-standard residues; d marks the D form. $4rn6 = Alpha-Me R-azide 1,4 triazole (6 carbon), forms a triazole cross-link with a second residue in the same molecule; $4a5 = Alpha-Me alkyne 1,4 triazole (5 carbon), forms a triazole cross-link with a second residue in the same molecule; $5rn6 = Alpha-Me R-azide 1,5 triazole (6 carbon); $5a5 = Alpha-Me alkyne 1,5 triazole (5 carbon); Cba = N[C@@H](CC1CCC1)C(=O)O

T1: MDMX (In-house, 40 kD) (UniProt O15151 1-134, limits assumed)
T1 construct: Construct used in the FP assays is described only as in-house, 40 kD; also called MDM4
T1 sequence (looked up): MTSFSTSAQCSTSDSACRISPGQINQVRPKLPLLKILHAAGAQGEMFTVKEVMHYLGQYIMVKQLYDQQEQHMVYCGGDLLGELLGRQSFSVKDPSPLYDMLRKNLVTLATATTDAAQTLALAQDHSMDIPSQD


What was measured:
MDMX (In-house, 40 kD) [1] = biological target: T1, MDMX (In-house, 40 kD); assay: competitive fluorescence polarization vs FAM-labeled linear peptide; grade of IC50 (MDMX); scale in paragraph 664: +++ = >10 and <=100 nM
Description: (§1) The assay is performed according to the following general protocol: 1. Dilute MDMX (In-house, 40 kD) into FP buffer (High salt buffer-200 mM Nacl, 5 mM CHAPS, pH 7.5.) to make 300 nM (2×) working stock solution. 2. Add 20 µl of 300 nM (2×) of protein stock solution into each well of 96-well black HE microplate (Molecular Devices) 3. […] Then, dilute from 100 µM to 10 µM with water (dilution 1:10) and then dilute with FP buffer from 10 µM to 40 nM (dilution 1:250). This is the working solution which will be a 10 nM concentration in well (dilution 1:4). […] 4. Make unlabeled peptide dose plate with FP buffer starting with 5 µM (final) of peptide and making 5 fold serial dilutions for 6 points using following dilution scheme. 5. Dilute 10 mM (in 100% DMSO) with DMSO to 5 mM (dilution 1:2). Then, dilute from 5 mM to 500 µM with H_2O (dilution 1:10) and then dilute with FP buffer from 500 µM to 20 µM (dilution 1:25). Making 5 fold serial dilutions from 20 µM (4×) for 6 points. 6. Transfer 10 µl of serial diluted unlabeled peptides to each well which is filled with 20 µl of 300 nM of protein. 7.

MDM2 (In-house, 41 kD) [2] = biological target: T2, MDM2 (In-house, 41 kD) (UniProt Q00987 1-138, limits assumed); assay: competitive fluorescence polarization vs FAM-labeled linear peptide; grade of IC50 (MDM2); scale in paragraph 664: +++ = >10 and <=100 nM
T2 construct: Construct used in the FP assays is described only as in-house, 41 kD; also called HDM2
T2 sequence (Q00987 1-138 limits assumed): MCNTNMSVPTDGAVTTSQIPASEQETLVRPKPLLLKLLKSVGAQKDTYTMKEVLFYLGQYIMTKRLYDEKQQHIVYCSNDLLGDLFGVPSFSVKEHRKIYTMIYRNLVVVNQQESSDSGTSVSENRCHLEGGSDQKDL

MDMX (In-house, 40 kD) [3] = biological target: T1, MDMX (In-house, 40 kD); assay: competitive fluorescence polarization vs FAM-labeled linear peptide; grade of Ki (MDMX); scale in paragraph 664: ++++ = <=10 nM
Description: as §1

MDM2 (In-house, 41 kD) [4] = biological target: T2, MDM2 (In-house, 41 kD); assay: competitive fluorescence polarization vs FAM-labeled linear peptide; grade of Ki (MDM2); scale in paragraph 664: ++++ = <=10 nM
MDMX (In-house, 40 kD) [5] = biological target: T1, MDMX (In-house, 40 kD); assay: competitive fluorescence polarization vs FAM-labeled linear peptide; grade of Ki (MDMX); scale in paragraph 664: +++ = >10 and <=100 nM
Description: as §1

MDM2 (In-house, 41 kD) [6] = biological target: T2, MDM2 (In-house, 41 kD); assay: competitive fluorescence polarization vs FAM-labeled linear peptide; grade of IC50 (MDM2); scale in paragraph 664: ++++ = <=10 nM
MDMX (In-house, 40 kD) [7] = biological target: T1, MDMX (In-house, 40 kD); assay: competitive fluorescence polarization vs FAM-labeled linear peptide; grade of IC50 (MDMX); scale in paragraph 664: ++++ = <=10 nM
Description: as §1

MDM2 (In-house, 41 kD) [8] = biological target: T2, MDM2 (In-house, 41 kD); assay: competitive fluorescence polarization vs FAM-labeled linear peptide; grade of Ki (MDM2); scale in paragraph 664: ++ = >100 and <=1000 nM
MDM2 (In-house, 41 kD) [9] = biological target: T2, MDM2 (In-house, 41 kD); assay: competitive fluorescence polarization, Ki (MDM2)
MDMX (In-house, 40 kD) [10] = biological target: T1, MDMX (In-house, 40 kD); assay: competitive fluorescence polarization, Ki (MDMX)
Description: as §1

Row | Binder | IC50 (MDMX (In-house, 40 kD) [1]) [nM] | IC50 (MDM2 (In-house, 41 kD) [2]) [nM] | Ki (MDMX (In-house, 40 kD) [3]) [nM] | Ki (MDM2 (In-house, 41 kD) [4]) [nM] | Ki (MDM2 (In-house, 41 kD) [9]) [nM] | Ki (MDMX (In-house, 40 kD) [10]) [nM] | other results
1 | LTFXAYWAQLXAAXA (N-terminal acetyl (Ac); position 4 = $4rn6 (alpha-Me R-azide 1,4 triazole, 6 carbon) crosslinked to position 11 = $4a5 (alpha-Me alkyne 1,4 triazole, 5 carbon); position 14 = Nle (norleucine); C-terminal amide (NH2), Triazole-crosslinked macrocycle of Formula I; also called Ac-LTF$4rn6AYWAQL$4a5AANleA-NH2) [SP-449] |  |  | ≤ 10 | ≤ 10 |  |  | IC50 (MDM2 (In-house, 41 kD) [6]): ≤ 10 nM; IC50 (MDMX (In-house, 40 kD) [7]): ≤ 10 nM
2 | Ac-LTF[$4rn6]AYWAQL[$4a5]AAAAA[dA]-NH2 (triazole 4-11, Triazole-crosslinked macrocycle of Formula I; also called Ac-LTF$4rn6AYWAQL$4a5AAAAAa-NH2) [SP-450] |  |  |  |  |  |  | Ki (MDM2 (In-house, 41 kD) [8]): 100 to 1000 nM
3 | Ac-LTA[$5rn6]EYWAQ[Cba][$5a5]SAA-NH2 (triazole 4-11, also called Ac-LTA$5rn6EYWAQCba$5a5SAA-NH2) [SP-459] |  |  |  |  | > 1000 | > 1000 | 

Further lines, with some results ahead:

Row | IC50 (MDMX (In-house, 40 kD) [1]) [nM] | IC50 (MDM2 (In-house, 41 kD) [2]) [nM] | Ki (MDMX (In-house, 40 kD) [3]) [nM] | Ki (MDM2 (In-house, 41 kD) [4]) [nM] | Ki (MDM2 (In-house, 41 kD) [9]) [nM] | Ki (MDMX (In-house, 40 kD) [10]) [nM] | Binder | other results
4 | 10 to 100 | 10 to 100 | ≤ 10 | ≤ 10 |  |  | LTFCAYWAQLCAAXA (N-terminal acetyl (Ac); position 4 = %cs7 (alpha-methyl-D-cysteine) connected by an i to i+7 seven-methylene bis-thioether crosslinker to position 11 = %c7 (alpha-methyl-L-cysteine); position 14 = Nle (norleucine); C-terminal amide (NH2), Thioether-crosslinked macrocycle of Formula II; also called Ac-LTF%cs7AYWAQL%c7AANleA-NH2) [SP-916] | 
5 | 10 to 100 | 10 to 100 |  | ≤ 10 |  |  | LTFCAYWAQLCAAAAAA (N-terminal acetyl (Ac); position 4 = %cs7 (alpha-methyl-D-cysteine) connected by an i to i+7 seven-methylene bis-thioether crosslinker to position 11 = %c7 (alpha-methyl-L-cysteine); position 17 = D-alanine (a); C-terminal amide (NH2), Thioether-crosslinked macrocycle of Formula II; also called Ac-LTF%cs7AYWAQL%c7AAAAAa-NH2) [SP-917] | Ki (MDMX (In-house, 40 kD) [5]): 10 to 100 nM
6 |  |  |  |  | > 1000 | > 1000 | Ac-LTA[$4rn6]EYWAQ[Cba][$4a5]SAA-NH2 (triazole 4-11, also called Ac-LTA$4rn6EYWAQCba$4a5SAA-NH2) [SP-460] | 
